± gives the standard error. Fewer inactive variants are shown than the library holds.
B1: glmS ribozyme (parent)
chain: AUAAAAGCGCCAGAACUACAGAAAUGUAGUUGACGAGGAGGAGGUUUAUCGAAUUUUCGGCGGAUGCCUCCAAA

Experiments:
Conditions in all cases: with glucosamine-6-phosphate
glucosamine-6-phosphate [1] = variants of: B1; test: self-cleavage kobs at 640 uM GlcN6P; higher = faster cleavage; RNA array
Procedure, shortened: (§1)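 kobs was derived by fitting per-tile medians to one- or two-exponential decays after normalising signals to baseline and to non-cleaving reference variants. Those signals came from barcoded ribozyme variants transcribed in situ by E. coli RNA polymerase on sequenced MiSeq chips, followed through a hybridised Cy3 probe at 37 °C and imaged over ~14 h. Glucosamine-6-phosphate (40 μM to 10 mM) in HEPES/KCl/Mg(OAc)2 buffer was flowed in. Weighted Michaelis–Menten fits across concentrations then gave kcat and KM.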

glucosamine-6-phosphate [2] = variants of: B1; test: self-cleavage kobs at 2500 uM GlcN6P; higher = faster cleavage; RNA array
Procedure, shortened: as §1

glucosamine-6-phosphate [3] = variants of: B1; test: self-cleavage kobs at 10000 uM GlcN6P; higher = faster cleavage; RNA array
Procedure, shortened: as §1

Row | Variant | self-cleavage kobs at 640 uM GlcN6P (glucosamine-6-phosphate [1]) [s⁻¹] | self-cleavage kobs at 2500 uM GlcN6P (glucosamine-6-phosphate [2]) [s⁻¹] | self-cleavage kobs at 10000 uM GlcN6P (glucosamine-6-phosphate [3]) [s⁻¹]
1 | G32C G37U G38C | < 1e-05 | < 1e-05 | 
2 | G29C A48G G60A | < 1e-05 |  | 
3 | G32A U54C C67U | 0.000136 ± 3.3e-05 | 0.000349 ± 9.2e-05 | 
4 | U30C G44U | < 1e-05 | < 1e-05 | < 1e-05
5 | C16U G43A C67G | 0.000254 ± 6.6e-05 |  | 0.000419 ± 0.0001
6 | C34A U46G G62C | < 1e-05 |  | 
7 | G29U C34U U55A | < 1e-05 | < 1e-05 | 
8 | G26U A42G U55C | 0.0103 ± 0.0029 |  | 
9 | U30A A36U C70G | 0.000179 ± 6.1e-05 | 0.000108 ± 4.4e-05 | 3.78e-05 ± 1.7e-05
10 | G32A C50U C70G | 0.000126 ± 4.6e-05 |  | 
11 | A33C A52G C67U | < 1e-05 | < 1e-05 | 
12 | G29U G37U G51C C68U C71G | 4.89e-05 ± 1.7e-05 |  | 
13 | G35A A53G G60C | < 1e-05 | < 1e-05 | 
14 | G32A G35U G38C A39C U49G | < 1e-05 | < 1e-05 | 
15 | A33C U47G A48C | < 1e-05 | < 1e-05 | < 1e-05
16 | A33G A36U G38C | < 1e-05 |  | 
17 | G29C U56A C67G | 4.47e-05 ± 2.1e-05 | 7.09e-05 ± 2e-05 | 
18 | C34U G37A A39G | < 1e-05 | < 1e-05 | 
19 | C34G G40U U46A | < 1e-05 |  | 
20 | U30A G40A C50U | < 1e-05 | < 1e-05 | 
21 | C16G G37A U45A | 8.21e-05 ± 2.1e-05 |  | 
22 | U30G U45A G59C | < 1e-05 | < 1e-05 | 

Row | Variant | self-cleavage kobs at 640 uM GlcN6P (glucosamine-6-phosphate [1]) [s⁻¹] | self-cleavage kobs at 2500 uM GlcN6P (glucosamine-6-phosphate [2]) [s⁻¹] | self-cleavage kobs at 10000 uM GlcN6P (glucosamine-6-phosphate [3]) [s⁻¹]
23 | G29A G32U U56A | 8.76e-05 ± 2.8e-05 | 0.000464 ± 0.00011 | 
24 | G29U A48U A53U G63A | < 1e-05 | < 1e-05 | 
25 | U31G U55A U69G | 7.53e-05 ± 1.6e-05 | 7.74e-05 ± 2.2e-05 | 
26 | U30G A39U U45G | 0.000324 ± 5.9e-05 | 0.00055 ± 0.0001 | 0.0014 ± 0.00018
27 | C34U G51A U57G U69G | 0.000271 ± 9.8e-05 |  | 0.000296 ± 7.8e-05
28 | U30A G37C A53U | < 1e-05 |  | < 1e-05
29 | C34A C61U U65C U69G | < 1e-05 |  | 
30 | C34G U46A U49A | < 1e-05 |  | 
31 | A33G C50G C68G | 0.00023 ± 6.4e-05 | 0.000213 ± 4e-05 | 
32 | G29C G59U C71U | < 1e-05 |  | 
33 | U30C A36C A39U G43A G44U | < 1e-05 |  | 
34 | G29A U30A A42G A53G | 9.25e-05 ± 2.3e-05 |  | 
35 | C34A G35A A42G | < 1e-05 | < 1e-05 | 
36 | A33G A36G G38A | < 1e-05 |  | 
37 | G29C G40A U65G | < 1e-05 |  | 
38 | G29A C34U G60U | < 1e-05 |  | 
39 | G26U A42U | 6.28e-05 ± 1.6e-05 | 0.000124 ± 2.5e-05 | 
40 | C16A G51U C67G | 0.000109 ± 4.2e-05 |  | 
41 | G32U A33U U56G | < 1e-05 |  | 
42 | U31C G37A G44U A48U C50A U65G | < 1e-05 |  | 
43 | U30A G38U | < 1e-05 | < 1e-05 | 
44 | G32C G63A U65A | < 1e-05 | < 1e-05 | 

Row | Variant | self-cleavage kobs at 640 uM GlcN6P (glucosamine-6-phosphate [1]) [s⁻¹] | self-cleavage kobs at 2500 uM GlcN6P (glucosamine-6-phosphate [2]) [s⁻¹] | self-cleavage kobs at 10000 uM GlcN6P (glucosamine-6-phosphate [3]) [s⁻¹]
45 | A33U G60A A64G | < 1e-05 | < 1e-05 | 
46 | A33C G35A U46A | < 1e-05 |  | 
47 | G32A G41A C50U | < 1e-05 | < 1e-05 | 
48 | G29U U31G U47G C71A | 9.8e-05 ± 3.6e-05 |  | 
49 | G32U G38U | < 1e-05 | < 1e-05 | 
50 | A33C A52C | < 1e-05 | < 1e-05 | 
51 | G29U A33C G41A U49C G60A U65C | < 1e-05 |  | 
52 | U30G U54A C67G | 0.000105 ± 2.2e-05 |  | 
53 | C34G U69G | 0.000107 ± 2e-05 | 8.27e-05 ± 2.5e-05 | 
54 | U30C G32U A64G | 7.24e-05 ± 2.3e-05 | 0.000195 ± 5.7e-05 | 
55 | A33U U49A G51C | < 1e-05 |  | 
56 | U31A A52G U69G | 7.54e-05 ± 3.6e-05 | 7.91e-05 ± 2.3e-05 | 
57 | G29C U45A C67A | 0.000165 ± 4.8e-05 |  | 
58 | U30G G37C G41A A48U A53U C68G C70U | < 1e-05 |  | 
59 | U30A G40U U45A | 4.42e-05 ± 2.1e-05 | 0.000226 ± 5.7e-05 | 
60 | C19A G44U | 2.94e-05 ± 1.3e-05 | 0.000114 ± 2.7e-05 | 
61 | A33C G35C A42G G51U C70G | < 1e-05 | < 1e-05 | 
62 | U30G A53G C67U | 0.000643 ± 0.00013 | 0.00132 ± 0.00032 | 
63 | A28C | 0.0103 ± 0.0026 |  | 0.0679 ± 0.022
64 | C34A G41A | < 1e-05 | < 1e-05 | 

Reference: the supplement of paper PMC7125110
